In patent publication US8754033B2, “Peptides for inhibiting transglutaminase” (National Cancer Center, priority 2005, dated 2014):

Target: T1, TGase (UniProt P08587)
T1 sequence (P08587 1-690): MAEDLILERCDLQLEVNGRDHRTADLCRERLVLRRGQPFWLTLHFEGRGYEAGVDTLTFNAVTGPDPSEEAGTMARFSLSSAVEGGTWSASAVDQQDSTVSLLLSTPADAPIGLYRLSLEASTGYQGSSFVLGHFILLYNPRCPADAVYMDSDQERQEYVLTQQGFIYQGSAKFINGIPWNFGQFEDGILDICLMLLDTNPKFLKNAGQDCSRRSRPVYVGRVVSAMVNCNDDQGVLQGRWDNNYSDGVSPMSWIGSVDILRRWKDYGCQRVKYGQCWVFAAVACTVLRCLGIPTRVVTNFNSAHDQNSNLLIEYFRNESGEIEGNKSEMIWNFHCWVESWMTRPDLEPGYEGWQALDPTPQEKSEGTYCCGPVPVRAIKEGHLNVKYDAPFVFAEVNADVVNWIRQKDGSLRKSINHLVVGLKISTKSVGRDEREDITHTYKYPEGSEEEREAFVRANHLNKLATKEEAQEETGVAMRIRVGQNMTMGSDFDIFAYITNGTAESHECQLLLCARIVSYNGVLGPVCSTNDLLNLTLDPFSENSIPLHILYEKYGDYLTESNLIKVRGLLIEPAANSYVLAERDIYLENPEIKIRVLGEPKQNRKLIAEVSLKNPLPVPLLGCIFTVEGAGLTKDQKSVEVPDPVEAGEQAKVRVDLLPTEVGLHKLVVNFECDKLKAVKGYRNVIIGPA
Assay: Competition assay: transglutaminase-mediated I-κBα cross-linking with or without synthetic peptides
Assay type: biochemical, guinea pig
Conditions: peptide 2 nmol, I-κBα 2 μg, 0.5 mU TGase, 10 mM CaCl2, 10 min at 37° C., SDS-PAGE, Coomassie band intensity
Protocol: I-κBα (2 μg) was incubated with 0.5 mU TGase in a reaction buffer containing 50 mM Tris pH 7.5 and 10 mM CaCl2, with or without the peptides (2 nmol) of Table 1, so as to observe the cross-linking of I-κBα. The peptides of Table 1 were synthesized in Peptron Inc. After incubation for 10 min at 37° C., the reactants were separated by SDS-PAGE and visualized by Coomassie staining. Bands were measured for intensity using Adobe Photoshop software (FIGS. 7 and 8).

How did the “inhibition of transglutaminase-mediated I-κBα polymerization” value turn out when “ENLQMLP [I-κBα-derived synthetic peptide, residues 275-281]” was run?
The value was “inhibit transglutaminase-mediated I-κBα polymerization”.

For “GVLTQSCTT [I-κBα-derived synthetic peptide, residues 161-169]”, which “inhibition of transglutaminase-mediated I-κBα polymerization” value is on record?
The value was “inhibit transglutaminase-mediated I-κBα polymerization”.

“HSILKATNY [I-κBα-derived synthetic peptide, residues 173-181]” was tested. Which “inhibition of transglutaminase-mediated I-κBα polymerization” value did it give?
The value was “inhibit transglutaminase-mediated I-κBα polymerization”.

“IHEEKALTM [I-κBα-derived synthetic peptide, residues 83-91]” was tested. Which “inhibition of transglutaminase-mediated I-κBα polymerization” value did it give?
The value was “inhibit transglutaminase-mediated I-κBα polymerization”.

Which “inhibition of transglutaminase-mediated I-κBα polymerization” value does the source give for “ILKAT [I-κBα-derived synthetic peptide, residues 175-179]” here?
Its value is “inhibit transglutaminase-mediated I-κBα polymerization”.

For “LGQLT [I-κBα-derived synthetic peptide, residues 269-273]”, which “inhibition of transglutaminase-mediated I-κBα polymerization” value is on record?
Its value is “inhibit transglutaminase-mediated I-κBα polymerization”.

“RDGLKKERLL [I-κBα-derived synthetic peptide, residues 17-26]” was tested. Which “inhibition of transglutaminase-mediated I-κBα polymerization” value did it give?
The value was “inhibit transglutaminase-mediated I-κBα polymerization”.

Which “inhibition of transglutaminase-mediated I-κBα polymerization” value does the source give for “RIEEQLG [mutant of I-κBα-derived peptide]” here?
Its value is “inhibit transglutaminase-mediated I-κBα polymerization”.

With “RIEQELG [mutant of I-κBα-derived peptide]” as the compound, how does the “inhibition of transglutaminase-mediated I-κBα polymerization” value read?
Its value is “inhibit transglutaminase-mediated I-κBα polymerization”.

“RIQEELG [mutant of I-κBα-derived peptide]” was tested. Which “inhibition of transglutaminase-mediated I-κBα polymerization” value did it give?
Its value is “inhibit transglutaminase-mediated I-κBα polymerization”.

With “RIQQQLG [I-κBα-derived synthetic peptide, residues 264-270]” as the compound, how does the “inhibition of transglutaminase-mediated I-κBα polymerization” value read?
Its value is “inhibit transglutaminase-mediated I-κBα polymerization”.

Which “inhibition of transglutaminase-mediated I-κBα polymerization” value does the source give for “TRIQQQLGQLTL [I-κBα-derived synthetic peptide, residues 263-274]” here?
Its value is “inhibit transglutaminase-mediated I-κBα polymerization”.

“VFGGQRLTL [I-κBα-derived synthetic peptide, residues 309-317]” was tested. Which “inhibition of transglutaminase-mediated I-κBα polymerization” value did it give?
Its value is “inhibit transglutaminase-mediated I-κBα polymerization”.

Target: transglutaminase (guinea pig liver, Sigma) (Cavia cutleri, UniProt P08587)
Assay: not given
Conditions: purified I-κBα with 1 mU transglutaminase, 50 mM Tris-HCl pH 7.5, 10 mM CaCl2, NuPAGE gel; in the presence of EDTA

Which “inhibition of transglutaminase (I-κBα polymerization)” value does the source give for O=C(O)CN(CCN(CC(=O)O)CC(=O)O)CC(=O)O [EDTA] here?
The value was “inhibited”.
